Measurements published in patent publication US20190060430A1 (published 2019).

Key:
Test in all cases: cytokine release
[1] = biological target: T1, hCMV pp65 peptide on HLA-DRB1*07:01 (human)
T1 peptide: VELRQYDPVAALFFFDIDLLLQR

[2] = biological target: NY-ESO-1 peptide on HLA-DRB1*04:01 (human)
[3] = biological target: T2, NY-ESO-1 peptide on HLA-DRB5*02:02 (human)
T2 peptide: SGNILTIRLTAADHRQLQL

[4] = biological target: T3, TPTE peptide on HLA-DRB1*13:01 (human)
T3 peptide: RFLDKKHRNHYRVYN

[5] = biological target: T4, TPTE peptide on HLA-DRB4*01:01 (human)
T4 peptide: NWNLPPRRILFIKHFIIYS

[6] = biological target: T5, TPTE peptide on HLA-DRB3*03:01 (human)
T5 peptide: IKLLRNIPRWTHLLR

[7] = biological target: T6, TPTE peptide on HLA-DRB1*13:01 (human)
T6 peptide: IFFDIKLLRNIPRWTHLLR

[8] = biological target: T7, TPTE peptide on HLA-DRB5*02:02 (human)
T7 peptide: KLIRRRVSENKRRYT

[9] = biological target: T8, TPTE peptide on HLA-DRB1*14:01 (human)
T8 peptide: KHFIIYSIPRYVRDLKIQI

[10] = biological target: T9, TPTE peptide on HLA-DRB1*14:01 (human)
T9 peptide: WLHTSFIENNRLYLPKNEL

[11] = biological target: T10, hCMV pp65 peptide on HLA-DRB1*07:01 (human)
T10 peptide: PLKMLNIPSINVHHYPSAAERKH

[12] = biological target: NY-ESO-1 peptide on HLA-DRB1*11:01 (human)
[13] = biological target: NY-ESO-1 peptide on HLA-DRB1*16:01 (human)
[14] = biological target: T11, TPTE peptide on HLA-B*35:01 (human)
T11 peptide: YPSDFAVEI

[15] = biological target: T12, TPTE peptide on HLA-DRB1*14:01 (human)
T12 peptide: SPISESVLARLSKFEVEDA

[16] = biological target: T13, TPTE peptide on HLA-DRB1*07:01 (human)
T13 peptide: ILADLIFTDSKLYIPLEYR

[17] = biological target: T14, NY-ESO-1 peptide on HLA-DRB1*04:01 (human)
T14 peptide: CFLPVFLAQPPSGQRR

[18] = biological target: T15, TPTE peptide on HLA-DRB5*02:02 (human)
T15 peptide: IFFDIKLLRNIPRWTHLLR

[19] = biological target: T16, TPTE peptide on HLA-DRB1*16:01 (human)
T16 peptide: NHYRVYNLCSERAYD

B1: TCRCD4-CMV#5 (TCR, V domains shown)
Valpha: GIQVEQSPPDLILQEGANSTLRCNFSDSVNNLQWFHQNPWGQLINLFYIPSGTKQNGRLSATTVATERYSLLYISSSQTTDSGVYFCAAGSNTGNQFYFGTGTSLTVIP
Vbeta: NAGVTQTPKFRVLKTGQSMTLLCAQDMNHEYMYWYRQDPGMGLRLIHYSVGEGTTAKGEVPDGYNVSRLKKQNFLLGLESAAPSQTSVYFCASSSRGYGTDTQYFGPGTRLTVL
[1]
  binding result: recognises

B2: TCRCD4-NY#3 (TCR, V domains shown)
Valpha: QKEVEQDPGPLSVPEGAIVSLNCTYSNSAFQYFMWYRQYSRKGPELLMYTYSSGNKEDGRFTAQVDKSSKYISLFIRDSQPSDSATYLCAMSKGAQKLVFGQGTRLTINP
Vbeta: EAGVAQSPRYKIIEKRQSVAFWCNPISGHATLYWYQQILGQGPKLLIQFQNNGVVDDSQLPKDRFSAERLKGVDSTLKIQPAKLEDSAVYLCASSLGDSNTGELFFGEGSRLTVL
[2]
  binding result: recognises

B3: TCRCD4-NY#13 (TCR, V domains shown)
Valpha: KQEVTQIPAALSVPEGENLVLNCSFTDSAIYNLQWFRQDPGKGLTSLLLIQSSQREQTSGRLNASLDKSSGRSTLYIAASQPGDSATYLCAVPTDSWGKLQFGAGTQVVVTP
Vbeta: DTGVSQDPRHKITKRGQNVTFRCDPISEHNRLYWYRQTLGQGPEFLTYFQNEAQLEKSRLLSDRFSAERPKGSFSTLEIQRTEQGDSAMYLCASSSKLTGIPEGTDTQYFGPGTRLTVL
[3]
  binding result: recognises

B4: TCRCD4-TPT#42 (TCR, V domains shown)
Valpha: GQQVMQIPQYQHVQEGEDFTTYCNSSTTLSNIQWYKQRPGGHPVFLIQLVKSGEVKKQKRLTFQFGEAKKNSSLHITATQTTDVGTYFCAGSTGGGNKLTFGTGTQLKVEL
Vbeta: GAGVSQSPRYKVAKRGQDVALRCDPISGHVSLFWYQQALGQGPEFLTYFQNEAQLDKSGLPSDRFFAERPEGSVSTLKIQRTQQEDSAVYLCASSDFYEQYFGPGTRLTVT
[4]
  binding result: recognises

B5: TCRCD4-TPT#4 (TCR, V domains shown)
Valpha: AQKITQTQPGMFVQEKEAVTLDCTYDTSDPSYGLFWYKQPSSGEMIFLIYQGSYDQQNATEGRYSLNFQKARKSANLVISASQLGDSAMYFCATASNFGNEKLTFGTGTRLTIIP
Vbeta: SAVISQKPSRDICQRGTSLTIQCQVDSQVTMMFWYRQQPGQSLTLIATANQGSEATYESGFVIDKFPISRPNLTFSTLTVSNMSPEDSSIYLCSVDRDREDGYTFGSGTRLTVV
[5]
  binding result: recognises

B6: TCRCD4-TPT#27 (TCR, V domains shown)
Valpha: GENVEQHPSTLSVQEGDSAVIKCTYSDSASNYFPWYKQELGKRPQLIIDIRSNVGEKKDQRIAVTLNKTAKHFSLHITETQPEDSAVYFCAALYSGGGADGLTFGKGTHLIIQP
Vbeta: DGGITQSPKYLFRKEGQNVTLSCEQNLNHDAMYWYRQDPGQGLRLIYYSQIVNDFQKGDIAEGYSVSREKKESFPLTVTSAQKNPTAFYLCASSIGGGVNTEAFFGQGTRLTVV
[6]
  binding result: recognises

B7: TCRCD4-TPT#55 (TCR, V domains shown)
Valpha: AQTVTQSQPEMSVQEAETVTLSCTYDTSESDYYLFWYKQPPSRQMILVIRQEAYKQQNATENRFSVNFQKAAKSFSLKISDSQLGDAAMYFCAYRSAVYNTDKLIFGTGTRLQVFP
Vbeta: KAGVTQTPRYLIKTRGQQVTLSCSPISGHRSVSWYQQTPGQGLQFLFEYFSETQRNKGNFPGRFSGRQFSNSRSEMNVSTLELGDSALYLCASSFSSYNEQFFGPGTRLTVL
[7]
  binding result: recognises

B8: TCRCD4-TPT#33 (TCR, V domains shown)
Valpha: DQQVKQNSPSLSVQEGRISILNCDYTNSMFDYFLWYKKYPAEGPTFLISISSIKDKNEDGRFTVFLNKSAKHLSLHIVPSQPGDSAVYFCAARSYGGSQGNLIFGKGTKLSVKP
Vbeta: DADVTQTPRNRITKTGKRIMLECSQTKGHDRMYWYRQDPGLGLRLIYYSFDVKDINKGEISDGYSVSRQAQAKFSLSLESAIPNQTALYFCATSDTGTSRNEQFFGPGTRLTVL
[8]
  binding result: recognises

B9: TCRCD4-TPT#5 (TCR, V domains shown)
Valpha: AQTVTQSQPEMSVQEAETVTLSCTYDTSESDYYLFWYKQPPSRQMILVIRQEAYKQQNATENRFSVNFQKAAKSFSLKISDSQLGDAAMYFCAYSRTSGTYKYIFGTGTRLKVLA
Vbeta: ETGVTQTPRHLVMGMTNKKSLKCEQHLGHNAMYWYKQSAKKPLELMFVYNFKEQTENNSVPSRFSPECPNSSHLFLHLHTLQPEDSALYLCASSQEISGSSYEQYFGPGTRLTVT
[9]
  binding result: recognises

B10: TCRCD4-TPT#13 (TCR, V domains shown)
Valpha: EDQVTQSPEALRLQEGESSSLNCSYTVSGLRGLFWYRQHPGKGPEFLFTLYSAGEEKEKERLKATLTKKESFLHITAPKPEDSATYLCAVQASNSGNTPLVFGKGTRLSVIA
Vbeta: DGGITQSPKYLFRKEGQNVTLSCEQNLNHDAMYWYRQDPGQGLRLIYYSQIVNDFQKGDIAEGYSVSREKKESFPLTVTSAQKNPTAFYLCASSAPHQRGTNEQFFGPGTRLTVL
[10]
  binding result: recognises

B11: TCRCD4-CMV#1 (TCR, V domains shown)
Valpha: KQEVTQIPAALSVPEGENLVLNCSFTDSAIYNLQWFRQDPGKGLTSLLLIQSSQREQTSGRLNASLDKSSGRSTLYIAASQPGDSATYLCAVKDNDMRFGAGTRLTVKP
Vbeta: DTAVSQTPKYLVTQMGNDKSIKCEQNLGHDTMYWYKQDSKKFLKIMFSYNNKELIINETVPNRFSPKSPDKAHLNLHINSLELGDSAVYFCASSQEKRGAFFGQGTRLTVV
[11]
  binding result: recognises

B12: TCRCD4-NY#7 (TCR, V domains shown)
Valpha: AQSVTQLDSQVPVFEEAPVELRCNYSSSVSVYLFWYVQYPNQGLQLLLKYLSGSTLVKGINGFEAEFNKSQTSFHLRKPSVHISDTAEYFCAVSKSGGYQKVTFGTGTKLQVIP
Vbeta: GAVVSQHPSWVICKSGTSVKIECRSLDFQATTMFWYRQFPKQSLMLMATSNEGSKATYEQGVEKDKFLINHASLTLSTLTVTSAHPEDSSFYICSAAPGLAGGQGGSQYFGPGTRLLVL
[12]
  binding result: recognises
[13]
  binding result: recognises

B13: TCRCD8-TPT#3 (TCR, V domains shown)
Valpha: TQLLEQSPQFLSIQEGENLTVYCNSSSVFSSLQWYRQEPGEGPVLLVTVVTGGEVKKLKRLTFQFGDARKDSSLHITAAQPGDTGLYLCAGAQGQKLLFARGTMLKVDL
Vbeta: DTGVSQNPRHKITKRGQNVTFRCDPISEHNRLYWYRQTLGQGPEFLTYFQNEAQLEKSRLLSDRFSAERPKGSFSTLEIQRTEQGDSAMYLCASSHLAGGNTGELFFGEGSRLTVL
[14]
  binding result: recognises

B14: TCRCD4-TPT#6 (TCR, V domains shown)
Valpha: QKEVEQDPGPLSVPEGAIVSLNCTYSNSAFQYFMWYRQYSRKGPELLMYTYSSGNKEDGRFTAQVDKSSKYISLFIRDSQPSDSATYLCAMSAVSFGNVLHCGSGTQVIVLP
Vbeta: ETGVTQSPTHLIKTRGQQVTLRCSSQSGHNTVSWYQQALGQGPQFIFQYYREEENGRGNFPPRFSGLQFPNYSSELNVNALELDDSALYLCASSFGENTIYFGEGSWLTVV
[15]
  binding result: recognises

B15: TCRCD4-TPT#87 (TCR, V domains shown)
Valpha: ELKVEQNPLFLSMQEGKNYTIYCNYSTTSDRLYWYRQDPGKSLESLFVLLSNGAVKQEGRLMASLDTKARLSTLHITAAVHDLSATYFCAVDMWNNNARLMFGDGTQLVVKP
Vbeta: KAGVTQTPRYLIKTRGQQVTLSCSPISGHRSVSWYQQTPGQGLQFLFEYFSETQRNKGNFPGRFSGRQFSNSRSEMNVSTLELGDSALYLCASSLAQSGANVLTFGAGSRLTVL
[7]
  binding result: recognises

B16: TCRCD4-TPT#11 (TCR, V domains shown)
Valpha: SQQGEEDPQALSIQEGENATMNCSYKTSINNLQWYRQNSGRGLVHLILIRSNEREKHSGRLRVTLDTSKKSSSLLITASRAADTASYFCAGYNTNAGKSTFGDGTTLTVKP
Vbeta: NAGVTQTPKFRILKIGQSMTLQCAQDMNHNYMYWYRQDPGMGLKLIYYSVGAGITDKGEVPNGYNVSRSTTEDFPLRLELAAPSQTSVYFCASSFGQVWADTQYFGPGTRLTVL
[16]
  binding result: recognises

B17: TCRCD4-NY#1 (TCR, V domains shown)
Valpha: GIQVEQSPPDLILQEGANSTLRCNFSDSVNNLQWFHQNPWGQLINLFYIPSGTKQNGRLSATTVATERYSLLYISSSQTTDSGVYFCAVNDYKLSFGAGTTVTVRA
Vbeta: DSGVTQTPKHLITATGQRVTLRCSPRSGDLSVYWYQQSLDQGLQFLIQYYNGEERAKGNILERFSAQQFPDLHSELNLSSLELGDSALYFCASSPGVSGTTEAFFGQGTRLTVV
[17]
  binding result: recognises

B18: TCRCD4-TPT#17 (TCR, V domains shown)
Valpha: DQQVKQNSPSLSVQEGRISILNCDYTNSMFDYFLWYKKYPAEGPTFLISISSIKDKNEDGRFTVFLNKSAKHLSLHIVPSQPGDSAVYFCAASPNTGNQFYFGTGTSLTVIP
Vbeta: GAGVSQSPSNKVTEKGKDVELRCDPISGHTALYWYRQSLGQGLEFLIYFQGNSAPDKSGLPSDRFSAERTGGSVSTLTIQRTQQEDSAVYLCASSLTGGPYEQYFGPGTRLTVT
[18]
  binding result: recognises

B19: TCRCD4-TPT#38 (TCR, V domains shown)
Valpha: ELKVEQNPLFLSMQEGKNYTIYCNYSTTSDRLYWYRQDPGKSLESLFVLLSNGAVKQEGRLMASLDTKARLSTLHITAAVHDLSATYFCAVGFRGSTLGRLYFGRGTQLTVWP
Vbeta: DAGVTQSPTHLIKTRGQHVTLRCSPISGHKSVSWYQQVLGQGPQFIFQYYEKEERGRGNFPDRFSARQFPNYSSELNVNALLLGDSALYLCASSWGQGNEKLFFGSGTQLSVL
[19]
  binding result: recognises
